This note sets out measurements from PMC4803053.

The assay addresses DSB nucleosomes (position of the break not stated; EMSAs of Figures 5A and 6A) (human) (UniProt P0C0S8).

“hMidm1m2–AID (Δ746–751/S813A/E829A/R847A/Q849A/L852A/K853A/N854A/D856A) (from UniProt Q9Y5B9 644-988) (domain or fragment)” registered a hexasome formation in EMSA with DSB nucleosomes, against wild-type hMid–AID of 2 fold.
